Experimental data published in the Immune Epitope Database (IEDB).
One block for each sequence: values may come before it.

Columns and labels:
HLA-A*01:01 [1] = experiment: IEDB peptide-MHC binding, purified MHC/competitive/fluorescence; filed as Kd, often an IC50 or EC50 that approximates it; ≥ and ≤ were set here for values at or beyond the usual limits of such assays
HLA-A*29:02 [2] = experiment: as above
HLA-B*45:06 = experiment: as above; conditions: source organism: Dengue virus 3 Philippines/H87/1956
HLA-A*31:01 = experiment: as above
HLA-B*15:42 = experiment: as above; conditions: source organism: Dengue virus 3 Philippines/H87/1956
HLA-B*83:01 = experiment: as above; conditions: source organism: Dengue virus 3 Philippines/H87/1956
HLA-A*68:01 = experiment: IEDB peptide-MHC binding, purified MHC/competitive/radioactivity; filed as Kd, often an IC50 or EC50 that approximates it; ≥ and ≤ were set here for values at or beyond the usual limits of such assays; conditions: source organism: Dengue virus 3 Martinique/1243/1999
HLA-A*11:01 = experiment: IEDB peptide-MHC binding, purified MHC/direct/fluorescence; filed as Kd, often an IC50 or EC50 that approximates it; ≥ and ≤ were set here for values at or beyond the usual limits of such assays; conditions: source organism: dengue virus type 2
HLA-A*02:01 [3] = experiment: IEDB peptide-MHC binding, purified MHC/competitive/radioactivity; filed as Kd, often an IC50 or EC50 that approximates it; ≥ and ≤ were set here for values at or beyond the usual limits of such assays
HLA-A*02:03 = experiment: as above
HLA-A*02:17 = experiment: as above
HLA-A*02:06 = experiment: as above
HLA-A*01:01 [4] = experiment: as above; conditions: source organism: Dengue virus 4 Philippines/H241/1956
HLA-A*68:02 [5] = experiment: as above; conditions: source organism: Dengue virus 3 Martinique/1243/1999
HLA-A*30:01 = experiment: as above; conditions: source organism: Dengue virus 1 Brazil/97-11/1997
HLA-A*02:01 [6] = experiment: IEDB peptide-MHC binding, purified MHC/competitive/fluorescence; filed as Kd, often an IC50 or EC50 that approximates it; ≥ and ≤ were set here for values at or beyond the usual limits of such assays
HLA-B*27:03 = experiment: as above
HLA-B*51:01 = experiment: as above
HLA-B*57:01 = experiment: as above
HLA-B*18:01 = experiment: as above
HLA-A*26:01 [7] = experiment: as above
HLA-B*46:01 = experiment: as above
HLA-A*03:01 [8] = experiment: as above
HLA-A*02:19 [9] = experiment: as above
HLA-B*15:01 [10] = experiment: as above
HLA-B*39:01 = experiment: as above
HLA-B*15:17 = experiment: as above
HLA-A*69:01 = experiment: as above
HLA-A*23:01 = experiment: IEDB peptide-MHC binding, purified MHC/direct/fluorescence; filed as Kd, often an IC50 or EC50 that approximates it; ≥ and ≤ were set here for values at or beyond the usual limits of such assays
HLA-A*24:03 = experiment: as above
HLA-A*02:12 = experiment: as above
HLA-A*03:01 [11] = experiment: as above
HLA-A*02:19 [12] = experiment: as above
HLA-A*29:02 [13] = experiment: as above
HLA-A*02:11 = experiment: as above; conditions: source organism: Araucaria virus
HLA-A*68:02 [14] = experiment: as above; conditions: source organism: Araucaria virus
HLA-B*15:01 [15] = experiment: as above; conditions: source organism: Orthohantavirus andesense
HLA-A*02:16 = experiment: as above; conditions: source organism: Araucaria virus
HLA-A*26:01 [16] = experiment: IEDB peptide-MHC binding, purified MHC/competitive/radioactivity; filed as Kd, often an IC50 or EC50 that approximates it; ≥ and ≤ were set here for values at or beyond the usual limits of such assays; conditions: source organism: Dengue virus 4 Philippines/H241/1956
[17] = source organism: Dengue virus 4 Philippines/H241/1956
[18] = source organism: Dengue virus 2 Thailand/NGS-C/1944
[19] = source organism: Dengue virus 2 Peru/IQT2913/1996
[20] = source organism: Dengue virus 1 Singapore/S275/1990
[21] = source organism: Campylobacter jejuni subsp. jejuni NCTC 11168 = ATCC 700819
[22] = source organism: Zaire ebolavirus
[23] = source organism: Araucaria virus
[24] = source organism: Mycobacterium tuberculosis variant bovis BCG str. Pasteur 1173P2

Sequence: MVKMGGLGY
Kd (HLA-A*01:01 [1]; source organism: Rotavirus G3): ≥ 20000 nM | Kd (HLA-A*29:02 [2]; source organism: Rotavirus G3): 28.6 nM

Sequence: TVMDIISRK
Kd (HLA-B*45:06): ≥ 5000 nM | Kd (HLA-A*31:01; source organism: Dengue virus 3 Philippines/H87/1956): ≥ 50000 nM | Kd (HLA-B*15:42): ≥ 5000 nM | Kd (HLA-B*83:01): ≥ 5000 nM | Kd (HLA-A*68:01): 10.5 nM | Kd (HLA-A*11:01): 1.7 nM

Sequence: GLFGKTQVGV
Kd (HLA-A*02:01 [3]; [17]): 6.21 nM | Kd (HLA-A*02:03; [17]): 0.55 nM | Kd (HLA-A*02:17; [17]): 2760 nM

Sequence: MLLVLCVTQV
Kd (HLA-A*02:01 [3]; [18]): 26.5 nM | Kd (HLA-A*02:06; [19]): 84 nM | Kd (HLA-A*02:03; [19]): 175 nM | Kd (HLA-A*02:17; [18]): 843 nM

Sequence: VTYECPLLV
Kd (HLA-A*02:01 [3]; [17]): 26.6 nM | Kd (HLA-A*01:01 [4]): 343 nM | Kd (HLA-A*02:17; [17]): 562 nM

Sequence: FESTITGEY
Kd (HLA-A*29:02 [2]; source organism: Vibrio cholerae 2740-80): 7.5 nM

Sequence: GVFHTMWHV
Kd (HLA-A*02:01 [3]; [17]): 7.59 nM | Kd (HLA-A*02:06; source organism: Dengue virus 3 Martinique/1243/1999): 4.41 nM | Kd (HLA-A*68:02 [5]): 7.01 nM | Kd (HLA-A*02:17; [17]): 109 nM

Sequence: TMLLMLLPTA
Kd (HLA-A*02:01 [3]; [20]): 30.6 nM | Kd (HLA-A*30:01): 12400 nM | Kd (HLA-A*02:06; source organism: Dengue virus 1 Brazil/97-11/1997): 2.59 nM | Kd (HLA-A*02:17; [20]): 661 nM

Sequence: AVGFFPTGV
Kd (HLA-A*02:01 [6]; [21]): 2.2 nM | Kd (HLA-B*27:03; [21]): ≥ 20000 nM | Kd (HLA-B*51:01; [21]): ≥ 20000 nM | Kd (HLA-B*57:01; [21]): ≥ 20000 nM | Kd (HLA-B*18:01; [21]): ≥ 20000 nM | Kd (HLA-A*26:01 [7]; [21]): ≥ 20000 nM | Kd (HLA-B*46:01; [21]): ≥ 20000 nM | Kd (HLA-A*03:01 [8]; [21]): ≥ 20000 nM | Kd (HLA-A*02:19 [9]; [21]): 103 nM | Kd (HLA-B*15:01 [10]; [21]): ≥ 20000 nM | Kd (HLA-A*29:02 [2]; [21]): 351 nM

Sequence: YLALIATFKI
Kd (HLA-A*02:17; source organism: Dengue virus 3 China/80-2/1980): 885 nM

Kd (HLA-A*01:01 [1]; source organism: Homo sapiens): 164 nM | Kd (HLA-B*46:01; source organism: Homo sapiens): 31.4 nM
Sequence: VSMDQLASY

Sequence: LLYYWVHLF
Kd (HLA-A*29:02 [2]; source organism: Bacillus thuringiensis str. Al Hakam): 22 nM

Sequence: FMKDGRSLV
Kd (HLA-A*02:01 [3]; [17]): 219 nM | Kd (HLA-A*02:06; [17]): 318 nM | Kd (HLA-A*02:03; [17]): 16.1 nM | Kd (HLA-A*02:17; [17]): 1660 nM

Sequence: TSACGIFLK
Kd (HLA-A*02:01 [6]; [22]): ≥ 20000 nM | Kd (HLA-B*39:01; [22]): ≥ 20000 nM | Kd (HLA-B*27:03; [22]): ≥ 20000 nM | Kd (HLA-B*15:17; [22]): ≥ 20000 nM | Kd (HLA-A*31:01; [22]): ≥ 20000 nM | Kd (HLA-B*51:01; [22]): ≥ 20000 nM | Kd (HLA-A*69:01; [22]): ≥ 20000 nM | Kd (HLA-B*57:01; [22]): ≥ 20000 nM | Kd (HLA-B*18:01; [22]): ≥ 20000 nM | Kd (HLA-A*26:01 [7]; [22]): ≥ 20000 nM | Kd (HLA-B*46:01; [22]): ≥ 20000 nM | Kd (HLA-B*15:01 [10]; [22]): ≥ 20000 nM | Kd (HLA-A*23:01; [22]): ≥ 20000 nM | Kd (HLA-A*24:03; [22]): ≥ 20000 nM | Kd (HLA-A*02:12; [22]): ≥ 20000 nM | Kd (HLA-A*03:01 [11]; source organism: Sudan ebolavirus - Maleo (1979)): 1100 nM | Kd (HLA-A*02:19 [12]; [22]): ≥ 20000 nM | Kd (HLA-A*29:02 [13]; [22]): ≥ 20000 nM

Sequence: LLENDMKFTV
Kd (HLA-A*02:01 [3]; [20]): 5.76 nM | Kd (HLA-A*02:17; [20]): 115 nM

Sequence: AQKLATKPV
Kd (HLA-A*02:01 [6]; [23]): ≥ 20000 nM | Kd (HLA-B*39:01; [23]): ≥ 20000 nM | Kd (HLA-B*27:03; [23]): ≥ 20000 nM | Kd (HLA-B*15:17; [23]): ≥ 20000 nM | Kd (HLA-B*51:01; [23]): ≥ 20000 nM | Kd (HLA-A*69:01; [23]): ≥ 20000 nM | Kd (HLA-B*57:01; [23]): ≥ 20000 nM | Kd (HLA-B*18:01; [23]): ≥ 20000 nM | Kd (HLA-A*26:01 [7]; [23]): ≥ 20000 nM | Kd (HLA-B*46:01; [23]): ≥ 20000 nM | Kd (HLA-A*23:01; [23]): ≥ 20000 nM | Kd (HLA-A*24:03; [23]): ≥ 20000 nM | Kd (HLA-A*02:11): ≥ 20000 nM | Kd (HLA-A*02:12; [23]): ≥ 20000 nM | Kd (HLA-A*03:01 [11]; [23]): ≥ 20000 nM | Kd (HLA-A*02:19 [12]; [23]): ≥ 20000 nM | Kd (HLA-A*68:02 [14]): ≥ 20000 nM | Kd (HLA-B*15:01 [15]): 716 nM | Kd (HLA-A*29:02 [13]; [23]): ≥ 20000 nM | Kd (HLA-A*02:16): ≥ 20000 nM

Sequence: LLVKLALITV
Kd (HLA-A*02:01 [3]; [17]): 17.6 nM | Kd (HLA-A*02:06; [17]): 769 nM | Kd (HLA-A*02:03; [17]): 0.18 nM | Kd (HLA-A*02:17; [17]): 6700 nM

Kd (HLA-A*02:01 [3]; source organism: Homo sapiens): ≥ 38700 nM | Kd (HLA-A*02:17; source organism: Homo sapiens): ≥ 20600 nM
Sequence: RKSAPSTGGV

Sequence: LLAGFMAYM
Kd (HLA-A*02:01 [3]; [17]): 4.7 nM | Kd (HLA-A*02:03; [17]): 68.5 nM | Kd (HLA-A*26:01 [16]): 1210 nM | Kd (HLA-A*02:17; [17]): 1.97 nM

Sequence: HLTRVGPYL
Kd (HLA-A*02:01 [6]; [24]): 2.4 nM | Kd (HLA-B*27:03; [24]): ≥ 20000 nM | Kd (HLA-B*51:01; [24]): ≥ 20000 nM | Kd (HLA-B*57:01; [24]): ≥ 20000 nM | Kd (HLA-B*18:01; [24]): ≥ 20000 nM | Kd (HLA-A*26:01 [7]; [24]): ≥ 20000 nM | Kd (HLA-B*46:01; [24]): ≥ 20000 nM | Kd (HLA-A*03:01 [8]; [24]): ≥ 20000 nM | Kd (HLA-A*02:19 [9]; [24]): 1030 nM | Kd (HLA-B*15:01 [10]; [24]): ≥ 20000 nM | Kd (HLA-A*29:02 [2]; [24]): ≥ 20000 nM
